Measurements from patent US20090215081.

Target: T1, FLAG-TCF4, full length human TCF4 expressed from pFLAG-CMV-4, Q9NQB0
T1 chain: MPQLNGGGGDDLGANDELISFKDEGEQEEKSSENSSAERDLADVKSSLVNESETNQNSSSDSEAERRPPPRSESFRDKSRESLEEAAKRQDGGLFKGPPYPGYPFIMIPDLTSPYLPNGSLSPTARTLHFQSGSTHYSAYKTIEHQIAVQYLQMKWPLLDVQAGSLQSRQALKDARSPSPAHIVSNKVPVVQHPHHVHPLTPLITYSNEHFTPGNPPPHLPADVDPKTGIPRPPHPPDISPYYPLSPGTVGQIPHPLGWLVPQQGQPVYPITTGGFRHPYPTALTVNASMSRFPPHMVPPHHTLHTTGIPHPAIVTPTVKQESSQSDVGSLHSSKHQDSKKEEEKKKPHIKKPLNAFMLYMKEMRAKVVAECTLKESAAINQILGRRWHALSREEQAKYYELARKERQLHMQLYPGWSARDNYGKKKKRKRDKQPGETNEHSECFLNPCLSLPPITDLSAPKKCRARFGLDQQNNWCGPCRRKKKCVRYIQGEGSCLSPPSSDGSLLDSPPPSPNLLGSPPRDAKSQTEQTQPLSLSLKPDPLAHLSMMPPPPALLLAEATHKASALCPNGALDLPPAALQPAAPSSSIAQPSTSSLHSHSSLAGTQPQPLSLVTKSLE

B1: HA-TNIK, wild-type human TNIK full length expressed from pCIneo-HA-TNIK (protein)
chain: MASDSPARSLDEIDLSALRDPAGIFELVELVGNGTYGQVYKGRHVKTGQLAAIKVMDVTGDEEEEIKQEINMLKKYSHHRNIATYYGAFIKKNPPGMDDQLWLVMEFCGAGSVTDLIKNTKGNTLKEEWIAYICREILRGLSHLHQHKVIHRDIKGQNVLLTENAEVKLVDFGVSAQLDRTVGRRNTFIGTPYWMAPEVIACDENPDATYDFKSDLWSLGITAIEMAEGAPPLCDMHPMRALFLIPRNPAPRLKSKKWSKKFQSFIESCLVKNHSQRPATEQLMKHPFIRDQPNERQVRIQLKDHIDRTKKKRGEKDETEYEYSGSEEEEEENDSGEPSSILNLPGESTLRRDFLRLQLANKERSEALRRQQLEQQQRENEEHKRQLLAERQKRIEEQKEQRRRLEEQQRREKELRKQQEREQRRHYEEQMRREEERRRAEHEQEYIRRQLEEEQRQLEILQQQLLHEQALLLEYKRKQLEEQRQAERLQRQLKQERDYLVSLQHQRQEQRPVEKKPLYHYKEGMSPSEKPAWAKEVEERSRLNRQSSPAMPHKVANRISDPNLPPRSESFSISGVQPARTPPMLRPVDPQIPHLVAVKSQGPALTASQSVHEQPTKGLSGFQEALNVTSHRVEMPRQNSDPTSENPPLPTRIEKFDRSSWLRQEEDIPPKVPQRTTSISPALARKNSPGNGSALGPRLGSQPIRASNPDLRRTEPILESPLQRTSSGSSSSSSTPSSQPSSQGGSQPGSQAGSSERTRVRANSKSEGSPVLPHEPAKVKPEESRDITRPSRPASYKKAIDEDLTALAKELRELRIEETNRPMKKVTDYSSSSEESESSEEEEEDGESETHDGTVAVSDIPRLIPTGAPGSNEQYNVGMVGTHGLETSHADSFSGSISREGTLMIRETSGEKKRSGHSDSNGFAGHINLPDLVQQSHSPAGTPTEGLGRVSTHSQEMDSGTEYGMGSSTKASFTPFVDPRVYQTSPTDEDEEDEESSAAALFTSELLRQEQAKLNEARKISVVNVNPTNIRPHSDTPEIRKYKKRFNSEILCAALWGVNLLVGTENGLMLLDRSGQGKVYNLINRRRFQQMDVLEGLNVLVTISGKKNKLRVYYLSWLRNRILHNDPEVEKKQGWITVGDLEGCIHYKVVKYERIKFLVIALKNAVEIYAWAPKPYHKFMAFKSFADLQHKPLLVDLTVEEGQRLKVIFGSHTGFHVIDVDSGNSYDIYIPSHIQGNITPHAIVILPKTDGMEMLVCYEDEGVYVNTYGRITKDVVLQWGEMPTSVAYIHSNQIMGWGEKAIEIRSVETGHLDGVFMHKRAQRLKFLCERNDKVFFASVRSGGSSQVFFMTLNRNSMMNW
- serine phosphorylation of TCF4 (immunoprecipitation with anti-TCF4, immunoblot with anti-phospho-serine antibody): the serine phosphorylation band of TCF4 was detected
